The supplement of paper PMC10724198
± gives the standard deviation of the averaged measurements.

System: Saccharomyces cerevisiae
Experiment: protein stability index of tFT-peptide fusion (C-terminal peptide) (PSI (0-1 scale)); higher = more stable (slower turnover)
Conditions: genetic background: wild type; temperature: 30 C
Method: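 Multiplexed protein stability (MPS) profiling in S. cerevisiae. Random 12-aa peptides (tFT-X12 library) are fused to the C-terminus of a sfGFP-mCherry tandem fluorescent timer, after mCherry and a GGGS linker. Cells are FACS-sorted into 8 mCherry/sfGFP bins and deep-sequenced. The protein stability index (PSI) is the read-weighted bin average, scaled from 0 (unstable) to 1 (stable). Only peptides with >10 reads are reported; cells were grown at 30 °C in SC-His with glucose.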
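Further: PSI is a weighted mean of sequencing reads over stability bins, variants kept only with over 10 reads, mCherry proximal and sfGFP distal, peptide attached via GGGS linker.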

Sequence | protein stability index
GVIFRRFDVGLS | 0.682 ± 0.053
GVIGFNSLYGIA | 0.632 ± 0.027
GVLGCRWWGSMG | 0.657 ± 0.015
GVLPVDKFLKNW | 0.735 ± 0.098
GVLRDRAFLTCA | 0.618 ± 0.028
GVLVERLCGRGF | 0.702 ± 0.049
GVPLSGLVCPRP | 0.7103 ± 0.001
GVRGGRGQGWYR | 0.6373 ± 0.0018
GVRNISELSRLF | 0.644 ± 0.019
GVRSGAGGQVVG | 0.701 ± 0.038
GVSIGVLTGAWR | 0.646 ± 0.0015
GVVGLCLLGLGR | 0.701 ± 0.024
GVVRSAPEAASL | 0.573 ± 0.03
GVVVKDPGNAFL | 0.704 ± 0.029
GVVVRSCLMGFT | 0.619 ± 0.022
GVWGGRGQGWYR | 0.674 ± 0.0096
GVWLRTARRISK | 0.688 ± 0.037
GVWTPGPIWGRG | 0.7134 ± 0.00084
GVWVGAVRGRYG | 0.6625 ± 0.0061
GVYFMGVLGREG | 0.655 ± 0.067
GVYVGWFMRSGG | 0.678 ± 0.015
GWAGRCAPGRVG | 0.637 ± 0.093
GWCPNRRSGVWV | 0.7285 ± 0.0032
GWCVWGVFSTAL | 0.631 ± 0.033
GWEVGRGRLGVV | 0.696 ± 0.095
GWFVGLVSRSLH | 0.67 ± 0.019

Sequence | protein stability index
GWFVVYQIGSEV | 0.564 ± 0.063
GWGGGGGAGGSV | 0.683 ± 0.018
GWGGGGGAWKGV | 0.736 ± 0.072
GWGPGGSERCGL | 0.711 ± 0.025
GWLRGVCFCSWG | 0.73 ± 0.037
GWQCGVNRGGWW | 0.752 ± 0.057
GWSVGQSEMNTY | 0.73 ± 0.056
GWVFLRVARFGL | 0.684 ± 0.045
GWWCGGGGAWSG | 0.719 ± 0.041
GWWGCGGWGFVG | 0.624 ± 0.05
GYAGAIMAGYDP | 0.656 ± 0.033
GYATVILYPSID | 0.653 ± 0.029
GYDLSASRALLA | 0.65 ± 0.019
GYLNSCADKNKV | 0.664 ± 0.028
GYMFLSFLKLCW | 0.599 ± 0.021
GYPRPLPYTPST | 0.687 ± 0.023
GYPSLYCLSVFM | 0.6155 ± 0.0058
GYRGRDETNATN | 0.65 ± 0.025
GYRNIEYGFGSG | 0.575 ± 0.061
GYRVNIDIKIVY | 0.5247 ± 0.0031
GYVLVLGVKGGL | 0.648 ± 0.032
HAIPAPDLYHTQ | 0.651 ± 0.09
HAPAPPLPTIYP | 0.668 ± 0.094
HAPRSPCLPFPP | 0.687 ± 0.047
HASPPPDASPPL | 0.687 ± 0.022
HCVSPKPFLKSE | 0.695 ± 0.045

Sequence | protein stability index
HDQKVPRERRTR | 0.699 ± 0.025
HDRRKAFHVVWL | 0.663 ± 0.039
HDSMTQEPQNSA | 0.65 ± 0.065
HDSRIDIASFHV | 0.716 ± 0.024
HEDIPGSTYTIN | 0.734 ± 0.033
HFLSCVGSLWFH | 0.741 ± 0.0087
HGGCLGGYGGGG | 0.661 ± 0.036
HGLLLRDRPLPT | 0.665 ± 0.024
HGLVLLCINDIV | 0.6312 ± 0.001
HGSDTSIALRSG | 0.622 ± 0.038
HHHPGQKCKIKG | 0.731 ± 0.016
HHLPPRTPPHNS | 0.657 ± 0.037
HHQVVPDVSLVS | 0.6585 ± 0.0013
HHTQPLKSIKKN | 0.708 ± 0.037
HIFAQSFLNIRI | 0.709 ± 0.04
HIGVVSIERLTS | 0.576 ± 0.021
HIHKKGPSGHQK | 0.696 ± 0.028
HIPPPPRPSAPP | 0.69 ± 0.04
HLGRRSGAQGLF | 0.699 ± 0.06
HLPPFSGIHLTP | 0.719 ± 0.011
HLPPLHRLSPPI | 0.668 ± 0.04
HLPPPPSPPPPP | 0.68 ± 0.051
HLPPSSPPLAVI | 0.68 ± 0.009
HLPRRAAILNEF | 0.709 ± 0.049
HLPSPPPPPSRL | 0.744 ± 0.031
HLSCVSVSVRGS | 0.629 ± 0.015

Sequence | protein stability index
HLSNSCLHGVSG | 0.6484 ± 0.00096
HLSPPLPPAPTS | 0.7022 ± 0.0063
HLSPPPLPPLTS | 0.696 ± 0.037
HLVLIHPTQTLN | 0.634 ± 0.045
HMQCVFRSTHHR | 0.585 ± 0.054
HNGRAARAYLCW | 0.65 ± 0.046
HNRADKLQTTIE | 0.69 ± 0.033
HPARPRPRLALS | 0.666 ± 0.043
HPGPFSTTWHPT | 0.743 ± 0.068
HPHRSAIIAGNH | 0.72 ± 0.0083
HPLLTPTPHKPD | 0.699 ± 0.11
HPLPPPLLPSPA | 0.659 ± 0.096
HPLVASRLSPFP | 0.761 ± 0.07
HPPHLSTPPYPP | 0.722 ± 0.047
HPPLPRPPPVPH | 0.683 ± 0.019
HPPPDPLPSRPS | 0.765 ± 0.093
HPPPHPPFPPRF | 0.73 ± 0.016
HPPPLVPSPSTQ | 0.749 ± 0.067
HPPSPPPPAPSC | 0.738 ± 0.02
HPRLLLYLPTSS | 0.726 ± 0.1
HPRRRPPPPSFP | 0.611 ± 0.023
HPSEPCKSQILL | 0.712 ± 0.027
HPSLSDLIVLCR | 0.51 ± 0.01
HPTLPLLSHPTS | 0.798 ± 0.14
HPTSPDPLVTPL | 0.737 ± 0.068
HPYTPLLSRLSP | 0.708 ± 0.0077

Sequence | protein stability index
HQFRPYPLFTAR | 0.733 ± 0.013
HQLHLMRDSIRN | 0.716 ± 0.021
HRCVQFMNWVAF | 0.735 ± 0.045
HRDRPYTPLSRF | 0.722 ± 0.13
HRKKTKNVTHVK | 0.6485 ± 0.0062
HRNPNLPFPPPL | 0.74 ± 0.069
HRTSSCESSPLA | 0.737 ± 0.076
HSAVRMGTRGRG | 0.715 ± 0.049
HSCPVCVGWNYS | 0.654 ± 0.047
HSDRPSPTRPQP | 0.6431 ± 0.0029
HSHAGIGPVVTR | 0.672 ± 0.0077
HSHKHTREDTVL | 0.657 ± 0.036
HSPASLPHLSGK | 0.728 ± 0.063
HSPPPLPLPTHP | 0.719 ± 0.077
HSSALFSSRLRF | 0.7223 ± 0.0036
HVAETRLRDHGW | 0.714
HVGEVERGGMGG | 0.7157 ± 0.0021
HVPGGRADMTRS | 0.706 ± 0.0097
HVRARLVVHQRA | 0.631 ± 0.047
HVRSPLRRVEKF | 0.6988 ± 0.006
HVSSKMEWGNRD | 0.763 ± 0.066
HVTGFVQRYLCH | 0.711 ± 0.092
HWPSGGGGPASH | 0.753 ± 0.037
HWRCASLTLSAG | 0.8 ± 0.02
HYYYPSPPSSRH | 0.621 ± 0.042
IACSLSSFSPVW | 0.687 ± 0.031

Sequence | protein stability index
IAKAVCESLCLQ | 0.7146 ± 0.0063
IALPPPGILDSA | 0.683 ± 0.16
IALPPPLLPPSL | 0.706 ± 0.051
IALTSCVPDLSF | 0.6911 ± 0.0037
IAQVDLPDRMKT | 0.6937 ± 0.0061
IARYLGRYERNV | 0.687 ± 0.042
IAVHLSVSSRSW | 0.616 ± 0.035
ICRGGLWGVCVG | 0.581 ± 0.0097
ICRGGYELLELG | 0.68 ± 0.026
ICVAVESRVSRG | 0.628 ± 0.046
ICYGIHYAQRGS | 0.646 ± 0.069
ICYGLHVPARRR | 0.63303 ± 0.00013
IDDITMYRKKYR | 0.66 ± 0.047
IDKGENTGKHRL | 0.673 ± 0.027
IDLISENDNAVG | 0.709 ± 0.021
IDMGEQTGKMIN | 0.72 ± 0.012
IDSCFKEVAYGK | 0.625 ± 0.014
IEDEHLEDAPYG | 0.678 ± 0.048
IEETKDYTRKRQ | 0.6484 ± 0.0034
IEGEVRKIGNPT | 0.681 ± 0.086
IEHYPVSSPKMR | 0.623 ± 0.079
IERCGIVKEVKG | 0.74 ± 0.012
IFINAGGYTHTN | 0.726 ± 0.067
IFSPHRPAVALV | 0.626 ± 0.073
IFWGFSFRGWAC | 0.656 ± 0.0067
